To fix the notation:
B1: Caspr2 ECD (protein)
chain: APSTSQKCDEPLVSGLPHVAFSSSSSISGSYSPGYAKINKRGGAGGWSPSDSDHYQWLQVDFGNRKQISAIATQGRYSSSDWVTQYRMLYSDTGRNWKPYHQDGNIWAFPGNINSDGVVRHELQHPIIARYVRIVPLDWNGEGRIGLRIEVYGCSYWADVINFDGHVVLPYRFRNKKMKTLKDVIALNFKTSESEGVILHGEGQQGDYITLELKKAKLVLSLNLGSNQLGPIYGHTSVMTGSLLDDHHWHSVVIERQGRSINLTLDRSMQHFRTNGEFDYLDLDYEITFGGIPFSGKPSSSSRKNFKGCMESINYNGVNITDLARRKKLEPSNVGNLSFSCVEPYTVPVFFNATSYLEVPGRLNQDLFSVSFQFRTWNPNGLLVFSHFADNLGNVEIDLTESKVGVHINITQTKMSQIDISSGSGLNDGQWHEVRFLAKENFAILTIDGDEASAVRTNSPLQVKTGEKYFFGGFLNQMNNSSHSVLQPSFQGCMQLIQVDDQLVNLYEVAQRKPGSFANVSIDMCAIIDRCVPNHCEHGGKCSQTWDSFKCTCDETGYSGATCHNSIYEPSCEAYKHLGQTSNYYWIDPDGSGPLGPLKVYCNMTEDKVWTIVSHDLQMQTPVVGYNPEKYSVTQLVYSASMDQISAITDSAEYCEQYVSYFCKMSRLLNTPDGSPYTWWVGKANEKHYYWGGSGPGIQKCACGIERNCTDPKYYCNCDADYKQWRKDAGFLSYKDHLPVSQVVVGDTDRQGSEAKLSVGPLRCQGDRNYWNAASFPNPSSYLHFSTFQGETSADISFYFKTLTPWGVFLENMGKEDFIKLELKSATEVSFSFDVGNGPVEIVVRSPTPLNDDQWHRVTAERNVKQASLQVDRLPQQIRKAPTEGHTRLELYSQLFVGGAGGQQGFLGCIRSLRMNGVTLDLEERAKVTSGFISGCSGHCTSYGTNCENGGKCLERYHGYSCDCSNTAYDGTFCNKDVGAFFEEGMWLRYNFQAPATNARDSSSRVDNAPDQQNSHPDLAQEEIRFSFSTTKAPCILLYISSFTTDFLAVLVKPTGSLQIRYNLGGTREPYNIDVDHRNMANGQPHSVNITRHEKTIFLKLDHYPSVSYHLPSSSDTLFNSPKSLFLGKVIETGKIDQEIHKYNTPGFTGCLSRVQFNQIAPLKAALRQTNASAHVHIQGELVESNCGASPLTLSPMSSATDPWHLDHLDSASADFPYNPGQGQAIRNGVNRNSA
B2: contactin-2 ECD (protein)
chain: SQTTFGPVFEDQPLSVLFPEESTEEQVLLACRARASPPATYRWKMNGTEMKLEPGSRHQLVGGNLVIMNPTKAQDAGVYQCLASNPVGTVVSREAILRFGFLQEFSKEERDPVKAHEGWGVMLPCNPPAHYPGLSYRWLLNEFPNFIPTDGRHFVSQTTGNLYIARTNASDLGNYSCLATSHMDFSTKSVFSKFAQLNLAAEDTRLFAPSIKARFPAETYALVGQQVTLECFAFGNPVPRIKWRKVDGSLSPQWTTAEPTLQIPSVSFEDEGTYECEAENSKGRDTVQGRIIVQAQPEWLKVISDTEADIGSNLRWGCAAAGKPRPTVRWLRNGEPLASQNRVEVLAGDLRFSKLSLEDSGMYQCVAENKHGTIYASAELAVQALAPDFRLNPVRRLIPAARGGEILIPCQPRAAPKAVVLWSKGTEILVNSSRVTVTPDGTLIIRNISRSDEGKYTCFAENFMGKANSTGILSVRDATKITLAPSSADINLGDNLTLQCHASHDPTMDLTFTWTLDDFPIDFDKPGGHYRRTNVKETIGDLTILNAQLRHGGKYTCMAQTVVDSASKEATVLVRGPPGPPGGVVVRDIGDTTIQLSWSRGFDNHSPIAKYTLQARTPPAGKWKQVRTNPANIEGNAETAQVLGLTPWMDYEFRVIASNILGTGEPSGPSSKIRTREAAPSVAPSGLSGGGGAPGELIVNWTPMSREYQNGDGFGYLLSFRRQGSTHWQTARVPGADAQYFVYSNESVRPYTPFEVKIRSYNRRGDGPESLTALVYSAEEEPRVAPTKVWAKGVSSSEMNVTWEPVQQDMNGILLGYEIRYWKAGDKEAAADRVRTAGLDTSARVSGLHPNTKYHVTVRAYNRAGTGPASPSANATTMKPPPRRPPGNISWTFSSSSLSIKWDPVVPFRNESAVTGYKMLYQNDLHLTPTLHLTGKNWIEIPVPEDIGHALVQIRTTGPGGDGIPAEVHIVRNGGTSMMVEN

The test “contactin-2 ECD” addresses B2. As to the kind of experiment: solid phase binding assay.
For the test “Caspr2 ECD”, the target named is B1. Kind of test: solid phase binding assay.

The results in this text go back to paper PMC5876120 (2019).

For the molecule B1, the affinity in the test with contactin-2 ECD, expressed as Kd, was 0.012 µM.

Regarding B2, in the test with Caspr2 ECD, the Kd (commonly the constant that tells how readily two partners part at equilibrium) stood at 0.015 µM.
